# Measured values taken from US20120315703A1.
# Target: Lrh-1 (liver receptor homolog 1, Nr5a2) (mouse) (UniProt P45448)
# Experiment: cell-based or functional assay
# Chain of UniProt P45448 (P45448 whole entry): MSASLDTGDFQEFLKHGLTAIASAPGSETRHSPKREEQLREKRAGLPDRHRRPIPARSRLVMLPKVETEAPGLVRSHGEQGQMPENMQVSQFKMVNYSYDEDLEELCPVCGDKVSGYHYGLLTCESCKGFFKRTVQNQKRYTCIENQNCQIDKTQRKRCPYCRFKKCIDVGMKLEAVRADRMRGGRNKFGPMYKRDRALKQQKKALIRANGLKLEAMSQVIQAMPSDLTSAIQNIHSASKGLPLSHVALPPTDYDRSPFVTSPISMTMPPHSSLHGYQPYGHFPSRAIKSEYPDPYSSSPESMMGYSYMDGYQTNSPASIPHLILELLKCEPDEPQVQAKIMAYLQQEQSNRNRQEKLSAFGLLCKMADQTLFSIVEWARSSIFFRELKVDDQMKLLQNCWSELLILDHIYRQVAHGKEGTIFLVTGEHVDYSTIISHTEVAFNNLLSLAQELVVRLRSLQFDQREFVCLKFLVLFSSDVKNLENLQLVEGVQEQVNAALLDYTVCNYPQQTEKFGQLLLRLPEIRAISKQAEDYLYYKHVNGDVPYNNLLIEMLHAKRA
substance,measurement,value
"Rarg (retinoic acid receptor gamma), full-length (from UniProt P18911 1-458)","luciferase reporter expression (luciferase cassette linked to the Oct4 promoter), fold increase on co-expression",4 to 5 fold
